In patent publication US20220340673A1 (HARBOUR BIOMED SUZHOU, published 2022) one finds EC50 and IC50 data, which are given here for three molecules.

A word on the EC50: it is the concentration at which the effect is half-maximal. By IC50 is commonly meant the concentration at which inhibition is half-maximal.

Assay [1] has as its target T1, human BCMA on cells (HEK293T/huBCMA; NCI-H929) (human, UniProt Q02223 1-184).
T1 construct: whole, on cells; also called human BCMA molecules on NCI-H929 cell line
T1 sequence (looked up): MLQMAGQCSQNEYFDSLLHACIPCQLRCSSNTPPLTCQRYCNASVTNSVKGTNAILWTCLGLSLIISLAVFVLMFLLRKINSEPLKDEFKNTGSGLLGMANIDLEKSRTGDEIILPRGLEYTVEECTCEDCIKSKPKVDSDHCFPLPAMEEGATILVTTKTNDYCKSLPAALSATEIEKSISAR
As to the kind of experiment: FACS on NCI-H929 cell line [B]. As to the method: To study the binding activity of the BCMA arm of the BCMA×CD3 bispecific antibody to human BCMA, NCI-H929 cell line with highly expressed BCMA was used for binding experiments with human BCMA at cellular level. Briefly, NCI-H929 cell suspensions were collected. The cell density was adjusted to 1×10⁶ cells/mL, and the cells were inoculated in 96 well V-bottom plates at 100 μL cells/well (Corning, Cat#: 3894), followed by the addition of test antibodies at 100 μL/well, which is gradient diluted at 3 folds of the concentration with 2 folds of the final concentration. Cells were incubated at 4° C. for 2 hours in the dark. Afterwards, cells were washed twice with 100 μL/well of pre-cooled PBS, centrifuged at 500 g for 5 min at 4° C., and followed by discarding the supernatant. 100 μL/well of fluorescent secondary antibody (Alexa Fluor 488-conjugated AffiniPure Goat Anti-Human IgG, Fcγ Fragment Specific, Jackson, Cat#:109-545-06, 1:500 dilution) was added and incubated at 4° C. for 1 hour in the dark. Cells were washed twice with 100 μL/well of pre-cooled PBS, centrifuged at 500 g, 4° C. for 5 min, and followed by discarding the supernatant. Finally, the cells were resuspended with 200 μL/well of pre-cooled PBS, and the fluorescence luminescence signal values were read by BD FACS CANTOII.

For assay [2], the target named is T1, human BCMA on cells (HEK293T/huBCMA; …). As to the kind of experiment: FACS on NCI-H929 cell line [D]. As to the method: (§1) This example was conducted to study the binding activity of anti human BCMA HCAb monoclonal antibodies to human and cynomolgus monkey BCMA in vitro. HEK293T cell strain (HEK293T/huBCMA, Beijing Kang yuan) overexpressing human BCMA, HEK293T cell strain (HEK293T/cynoBCMA, Beijing Kang yuan) overexpressing cynomolgus monkey BCMA and NCI- H929 cell line (ATCC® CRL-9068TM) highly expressing human BCMA were used for antibody binding assay at cellular level. Briefly, HEK293T/huBCMA cells and HEK293T/cynoBCMA cells were digested and resuspended with DMEM complete medium, and NCI-H929 cell suspensions were collected by resuspension with DMEM complete medium. The density of the three cells was adjusted to 1×10⁶ cells/mL, respectively. The cells were inoculated at 100 μL cells/well in 96 well V-bottom plates (Corning, Cat#: 3894), followed by the addition of test antibodies at 100 μL/well, which is gradient diluted at 3 folds of the concentration with 2 folds of the final concentration. Cells were incubated at 4° C. for 1 hours in the dark. Afterwards, the cells were washed twice with 100 μL/well of pre-cooled PBS, centrifuged at 500 g for 5 min at 4° C. and followed by discarding the supernatant. […] Finally, the cells were resuspended with 200 μL/well of pre-cooled PBS and the fluorescent luminescence signal values were read by using BD FACS CANTOII.

For assay [3] the target is unchanged. As to the kind of experiment: FACS on HEK293T cell strain overexpressing human BCMA [D]. As to the method:
as §1

The target in assay [4] is T2, cynomolgus monkey BCMA on cells (HEK293T/cynoBCMA) (cynomolgus monkey, UniProt A0A2K5UD97 1-183).
T2 construct: whole, on cells
T2 sequence (A0A2K5UD97 entry or part of it): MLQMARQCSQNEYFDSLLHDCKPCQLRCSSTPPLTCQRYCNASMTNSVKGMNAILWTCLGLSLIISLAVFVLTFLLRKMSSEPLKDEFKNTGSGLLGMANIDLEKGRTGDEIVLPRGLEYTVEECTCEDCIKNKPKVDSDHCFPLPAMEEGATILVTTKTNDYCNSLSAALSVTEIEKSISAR
The assay can be described thus: FACS on HEK293T cell strain overexpressing cynomolgus monkey BCMA [D]. As for the experimental part:
as §1

Assay [5] deals with T3, human BCMA protein with Fc Tag (ACRO, Cat#: BC7-H5254) (human, UniProt Q02223 1-54).
T3 construct: Bought reagent coated on the ELISA plate; not shown: Fc tag of the bought protein
T3 sequence (looked up): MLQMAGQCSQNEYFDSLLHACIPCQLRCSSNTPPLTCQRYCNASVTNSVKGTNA
The assay can be described thus: ELISA, plate coated with human BCMA-Fc; antibody blocks the binding of biotinylated human BAFF [B]. As for the experimental part:
This example was conducted to evaluate the blockage ability of anti-human BCMA HCAb monoclonal antibody to the binding of human BCMA (ACRO, BCA-H522y-100 μg) with ligand BAFF protein (ACRO, BAF-H5248-50 μg). The BAFF protein was biotinylated by using a biotinylation kit (ThermoFisher, A39257, EZ-Link Sulfo-NHS-LC-Biotin) according to the instructions. The plates (Corning, Cat#: 9018) were coated with 1 μg/mL of human BCMA protein with Fc Tag (ACRO, Cat#: BC7-H5254) overnight. The plates were washed for 3 times with PBST, added with 2% BSA and then sealed at room temperature for 1 hour. The plates were washed with PBST for 3 times, and added with test antibody gradient diluted at 3 folds concentration 100 μL/well, with an initial concentration of 50 nM. After being incubated for 1h, the supernatant was discarded and 0.5 μg/mL of biotinylated human BAFF protein (prepared according to conventional methods in the art) was added to the plates at 100 μL/well. The plates were incubated at room temperature for 1 h and discarded the supernatant. Streptavidin-coupled HRP (Bio-RAD, Cat#: 1610380) with 1: 4000 diluted was added at 100 μL/well. The plates were incubated for 1 h at room temperature and washed with PBST for 3 times. […] OD450 values were read by using Enspire (Perkin Elmer).
A general note: An ELISA detects its analyte on a solid surface through an enzyme-linked reagent.

B1: BCMA x CD3 bispecific antibody PR002299 (bispecific antibody, human IgG1, lambda, L234A L235A)
heavy 1: EVQLLESGGGLVQPGGSLRLSCAASGFTFSTYAMNWVRQAPGKGLEWVSRIRSKYNNYATYYADSVKDRFTISRDDSKSTLYLQMNSLRAEDTAVYYCVRHGNFGNSYVSWFAYWGQGTLVTVSSASTKGPSVFPLAPSSKSTSGGTAALGCLVKDYFPEPVTVSWNSGALTSGVHTFPAVLQSSGLYSLSSVVTVPSSSLGTQTYICNVNHKPSNTKVDKKVEPKSCDKTHTCPPCPAPEAAGGPSVFLFPPKPKDTLMISRTPEVTCVVVDVSHEDPEVKFNWYVDGVEVHNAKTKPREEQYNSTYRVVSVLTVLHQDWLNGKEYKCKVSNKALGAPIEKTISKAKGQPREPQVYTLPPCREEMTKNQVSLWCLVKGFYPSDIAVEWESNGQPENNYKTTPPVLDSDGSFFLYSKLTVDKSRWQQGNVFSCSVMHEALHNHYTQKSLSLSPGK
light: QAVVTQEPSLTVSPGGTVTLTCRSSTGAVTTSNYANWVQQKPGQAPRGLIGGTNKRAPWTPARFSGSLLGDKAALTLLGAQPEDEAEYFCALWYSNLWVFGGGTKLTVLGQPKAAPSVTLFPPSSEELQANKATLVCLISDFYPGAVTVAWKADSSPVKAGVETTTPSKQSNNKYAASSYLSLTPEQWKSHRSYSCQVTHEGSTVEKTVAPTECS
heavy 2: EVQLLESGGGLVQPGGSLRLSCAASGFTFSSYAMIWVRQAPGKGLEWVSGISESGGSTYYADSVKGRFTISRDNSKNTLYLQMNSLRAEDTAVYFCVKDLDDILTGYYKDYWGQGTLVTVSSRTGGGGSKLEVQLLESGGGLVQPGGSLRLSCAASGFTFSSYAMIWVRQAPGKGLEWVSGISESGGSTYYADSVKGRFTISRDNSKNTLYLQMNSLRAEDTAVYFCVKDLDDILTGYYKDYWGQGTLVTVSSASEPKSSDKTHTCPPCPAPEAAGGPSVFLFPPKPKDTLMISRTPEVTCVVVDVSHEDPEVKFNWYVDGVEVHNAKTKPREEQYNSTYRVVSVLTVLHQDWLNGKEYKCKVSNKALGAPIEKTISKAKGQPREPQVCTLPPSREEMTKNQVSLSCAVKGFYPSDIAVEWESNGQPENNYKTTPPVLDSDGSFFLVSKLTVDKSRWQQGNVFSCSVMHEALHNHYTQKSLSLSPGK
In turn, B1 had an EC50 in assay [1] of 57.2 nM.

B2: anti-human BCMA HCAb monoclonal antibody PR001046 (antibody, human IgG1, V domains shown)
VH: EVQLVETGGGLIQPGGSLRLSCAASGFTVSDNYMTWVRQAPGKGLEWVSVIFSGGNTYYADSVKGRFTISRDNAKNTLYLQMNSLRAEDTALYYCARRNYDDTRGTDVFDIWGQGTMVTVSS
notes: also called PRO01046; HBM1005P63B7
As to B2, the EC50 in assay [2] is 1.53 nM; in assay [3], 0.213 nM; in assay [4], 0.564 nM. In assay [5], this molecule yielded an IC50 of 2.94 nM.

B3: positive control 1, PR000274 (anti-BCMA antibody CA8-J6M0 hIgG1) (antibody, V domains shown)
VH: QVQLVQSGAEVKKPGSSVKVSCKASGGTFSNYWMHWVRQAPGQGLEWMGATYRGHSDTYYNQKFKGRVTITADKSTSTAYMELSSLRSEDTAVYYCARGAIYDGYDVLDNWGQGTLVTVSS
VL: DIQMTQSPSSLSASVGDRVTITCSASQDISNYLNWYQQKPGKAPKLLIYYTSNLHSGVPSRFSGSGSGTDFTLTISSLQPEDFATYYCQQYRKLPWTFGQGTKLEIKR
notes: Full-length hIgG1 control antibody
Turning to B3, the EC50 in assay [2] worked out at 10.8 nM; in assay [3], 4.07 nM; in assay [4] it was 4.56 nM. This molecule had an IC50 in assay [5] of 4.36 nM.
